In article PMC5727116, “PEPD is a pivotal regulator of p53 tumor suppressor” (Nature Communications, 2017):

Biological target: T1, recombinant human p53, N-terminal His tag (human, UniProt P04637 1-393)
T1 construct: human p53, wild type, 393 aa per subunit as printed; plasmid pET15b-His-human p53; also called WT p53; source: E. coli, purified (nickel nitrilotriacetic acid-agarose chromatography)
Assay: co-IP; purified PEPD or a PEPD mutant at 100 nM incubated with p53 at 200 nM in PBS, 100 µl, 2 h, room temperature; then PEPD antibody (2 µg) in 300 µl PBS overnight at 4 °C, protein G-agarose, IB
Conditions: both partners purified

T1 sequence (P04637 whole entry): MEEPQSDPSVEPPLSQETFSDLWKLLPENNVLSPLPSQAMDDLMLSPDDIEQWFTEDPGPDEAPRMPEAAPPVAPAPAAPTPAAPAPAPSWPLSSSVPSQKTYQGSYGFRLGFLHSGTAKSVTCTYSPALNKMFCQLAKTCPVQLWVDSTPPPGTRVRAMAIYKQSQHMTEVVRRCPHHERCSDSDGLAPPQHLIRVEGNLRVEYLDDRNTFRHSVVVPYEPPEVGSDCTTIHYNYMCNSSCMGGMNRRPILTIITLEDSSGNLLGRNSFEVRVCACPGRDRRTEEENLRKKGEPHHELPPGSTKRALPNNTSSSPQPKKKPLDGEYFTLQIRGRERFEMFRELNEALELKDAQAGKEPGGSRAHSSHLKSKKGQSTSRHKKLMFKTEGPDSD

binding result: binds
B1: recombinant human PEPD^265-493aa, C-terminal His tag (domain or fragment, UniProt P12955 265-493, looked up)
chain: RTIQNGDMCLFDMGGEYYCFASDITCSFPANGKFTADQKAVYEAVLRSSRAVMGAMKPGVWWPDMHRLADRIHLEELAHMGILSGSVDAMVQAHLGAVFMPHGLGHFLGIDVHDVGGYPEGVERIDEPGLRSLRTARHLQPGMVLTVEPGIYFIDHLLDEALADPARASFLNREVLQRFRGFGGVRIEEDVVVTDSGIELLTCVPRTVEEIEACMAGCDKAFTPFSGPK
notes: also called C-terminal 229 aa; source: E. coli, purified (nickel nitrilotriacetic acid-agarose chromatography)
